code X = not defined here; Su = not defined here
Experiments:
human IgG [1] = assay type: binding
Description: (§1) In addition, the following targets, all unfractionated IgGs, were also evaluated with selected immobilized peptides for species specificity characterization in a similar format: human IgG, goat IgG, bovine IgG, and mouse IgG (Sigma, product nos. I4506, I5256, I5506, and I15381, respectively). In addition, 10 μl aliquots of hydrolyzed NHS-activated Sepharose 4 Fast Flow (Amersham Pharmacia Biotech, product no. 17-0906-01) and immobilized recombinant Protein A (RepliGen Corp., product no. IPA-400) were also assayed as negative and positive controls. IgG targets were diluted into 10 mM phosphate buffer containing 150 mM NaCl and 0.01% Tween 20, pH 7.2 (PBST) or 50 mM Tris buffer containing, 150 mM NaCl and 0.01% Tween-20, pH 7.5 (TBST). Batch (static) binding and elution studies were conducted in a 96-well assay filterplate (Millipore MultiScreen-HV, with 0.45 μm Durapore membrane, product no. MAHVN4510). The target was allowed to incubate with the resin for 1-1.5 hours with shaking at room temperature. Unbound target was collected by centrifugation of samples from the assay plate directly into a low-UV absorbing 96-well collection plate (Costar, product no. 3635 or Greiner, product no. 655801). The unbound target was then quantitated by reading the absorbance at 280 nm (normalized to 1 cm pathlength, 1.4 mg/ml A280 extinction coefficient) of the collection plate on a microplate spectrophotometer (Molecular Devices Corp., SPECTRAmax PLUS) against a buffer blank.
(§2) The percentage bound target was determined by subtracting the mass determined as unbound from the corresponding condition's control values (control non-filtered added directly to the collection plate and/or the negative control). The assay plate was washed (3×) with 200 μl of binding buffer by vacuum filtration followed by addition of 100 μl of various elution conditions (e.g.: 0.1 M sodium bicarbonate buffer, pH 8.5 and/or 0.1 M sodium citrate buffer, pH 4.0). After a 30-60 minute incubation with shaking at room temperature, the eluted target was collected by centrifugation of the assay plate into another collection plate and quantitated in a similar manner. Percent elution of total load was then determined to characterize elution recovery efficiency under various conditions. The assay plate was then washed (3×) with 200 μl of binding buffer by vacuum filtration followed by addition of a resin cleaning condition (e.g., 0.1M CAPS buffer (3-[Cyclohexylamino]-1-propane-sulfonic acid), pH 11.5, to regenerate the resin for re-use. Percentage mass balance determination was calculated to be 90-100% on average.

human IgG [2] = test: Static (filterplate) binding capacity; details: Table 18; 25 mg human IgG applied per ml resin; average ligand density 1.9 μmole/ml
Description: These media were used to determine the effect of ligand density on human IgG binding capacity in both static (filterplate) and dynamic (mini-column) modes with commercial immobilized recombinant Protein A (Repligen, IPA400) at a single density as control. Actual ligand densities obtained ranged from 0.17 to 3.2 μmole/ml media as confirmed by quantitative amino acid analysis.
After incubation of the samples, with shaking, at room temperature for one hour, the supernatant liquid from each well, containing unbound IgG, was collected by centrifugation into the cognate well of a collection plate. The assay plate was washed three times with PBST (200 μl/wash) and bound IgG was eluted from the media samples by incubation for 30-60 minutes at room temperature in 100 μl Elution Buffer (100 mM CAPS, pH 11.5). Eluates were collected by centrifugation for analysis. Protein concentrations were determined from A280 measurements and plotted as a function of mg human IgG bound per ml resin vs. mg human IgG applied per ml resin.
The amount of IgG captured (estimated from IgG recovered in the elution step) by the various media is dependent upon both the IgG concentration and the ligand density. […] Under these static conditions, where both ligand and target concentrations are close to KD values, equilibrium binding is established and total capacities cannot be accurately determined. However, over the IgG range of 0 to 25 mg IgG applied per ml resin (0 to 2.5 mg/ml target added to 10 μl of resin), capture of IgG is linear. Beyond this point, up to a level of 200 mg IgG applied per ml resin, saturation becomes more pronounced.

human IgG2 = molecular target: T1, human IgG2 (Homo sapiens, UniProt P01859); assay type: binding; details: Table 13
T1 construct: all human subtypes derived from myeloma patients; purchased Calbiochem 400122; host or cells: myeloma patients
T1 sequence (P01859 1-326 isoform P01859-1): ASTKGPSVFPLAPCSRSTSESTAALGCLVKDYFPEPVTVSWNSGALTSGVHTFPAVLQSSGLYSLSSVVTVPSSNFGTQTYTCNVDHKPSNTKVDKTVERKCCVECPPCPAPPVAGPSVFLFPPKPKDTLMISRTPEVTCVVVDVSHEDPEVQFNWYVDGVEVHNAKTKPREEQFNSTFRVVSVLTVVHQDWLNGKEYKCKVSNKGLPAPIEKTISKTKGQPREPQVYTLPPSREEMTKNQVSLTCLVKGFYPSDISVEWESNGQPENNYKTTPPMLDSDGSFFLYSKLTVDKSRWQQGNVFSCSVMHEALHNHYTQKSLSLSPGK
Description: as §1, §2

human IgG1 = molecular target: T2, human IgG1 (Homo sapiens, UniProt P01857); assay type: binding; details: Table 13
T2 construct: all human subtypes derived from myeloma patients; purchased Calbiochem 400120; host or cells: myeloma patients
T2 sequence (P01857 1-330 isoform P01857-1): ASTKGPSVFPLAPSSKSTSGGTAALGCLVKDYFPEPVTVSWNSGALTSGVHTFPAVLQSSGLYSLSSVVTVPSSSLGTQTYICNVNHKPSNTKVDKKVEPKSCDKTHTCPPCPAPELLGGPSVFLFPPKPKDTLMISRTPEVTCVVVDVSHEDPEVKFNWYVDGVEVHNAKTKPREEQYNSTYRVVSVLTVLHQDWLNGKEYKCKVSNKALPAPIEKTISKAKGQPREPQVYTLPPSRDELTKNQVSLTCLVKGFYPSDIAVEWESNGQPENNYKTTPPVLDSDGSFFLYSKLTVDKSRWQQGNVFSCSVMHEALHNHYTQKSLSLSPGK
Description: as §1, §2

mouse IgG = assay type: binding; details: Table 14; average ligand density 1.8 μM/ml
Description: as §1, §2

IgG4 = IgG4 (Homo sapiens, UniProt P01861); assay type: binding; design: all human subtypes derived from myeloma patients; purchased Calbiochem 400126; host or cells: myeloma patients; details: Table 13
Sequence of IgG4 (P01861 1-327 isoform P01861-1): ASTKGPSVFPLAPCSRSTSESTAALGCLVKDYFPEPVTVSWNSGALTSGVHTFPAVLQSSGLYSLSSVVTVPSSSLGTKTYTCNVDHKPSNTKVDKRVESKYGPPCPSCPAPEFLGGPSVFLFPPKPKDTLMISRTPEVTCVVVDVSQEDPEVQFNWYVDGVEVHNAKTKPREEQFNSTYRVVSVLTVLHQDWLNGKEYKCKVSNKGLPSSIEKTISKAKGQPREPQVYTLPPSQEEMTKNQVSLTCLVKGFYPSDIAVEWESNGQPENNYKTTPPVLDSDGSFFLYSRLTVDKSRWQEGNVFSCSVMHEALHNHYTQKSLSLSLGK
Description: as §1, §2

## Ac-GDDHMCVYTTWGELIWCDNHEPG-X-Su-X-NH2 (Ac-GDDHMCVYTTWGELIWCDNHEPG-{code X-Su-code X-NH2}; not fully specified (bridges); printed as Ac-GDDHMCVYTTWGELIWCDNHEPG-X-Su-X-NH2; cysteine pairing not given here; reading uncertain) [DX878]
Human IgG [1]; Table 18, average ligand density 1.9 μmole/ml
  Batch Binding (% Capture of Total Load) hIgG: 63%
Human IgG [2]
  Static Cap.: 23 mg/mL

## Ac-GDSWNCAFHHNEMVWCDDGGTPGPEGGGK-NH2 (not fully specified (bridges); printed as Ac-GDSWNCAFHHNEMVWCDDGGTPGPEGGGK-NH2; cysteine pairing not given here) [DX597]
Human IgG [1]; Table 14, average ligand density 1.8 μM/ml
  % IgG Capture - Batch Binding, Human IgG: 77%
Human IgG2
  hIgG2 elution pH 2.5 (% of Total Load): 82%
  hIgG2 elution pH 3.5 (% of Total Load): 80%
  hIgG2 elution pH 4.5 (% of Total Load): 38%
  hIgG2 elution pH 5.5 (% of Total Load): 1%
  hIgG2 elution pH 9.0 (% of Total Load): 51%
  hIgG2 elution pH 9.5 (% of Total Load): 60%
Human IgG1
  hIgG1 elution pH 2.5 (% of Total Load): 76%
  hIgG1 elution pH 3.5 (% of Total Load): 81%
  hIgG1 elution pH 4.5 (% of Total Load): 39%
  hIgG1 elution pH 5.5 (% of Total Load): 1%
  hIgG1 elution pH 9.0 (% of Total Load): 52%
  hIgG1 elution pH 9.5 (% of Total Load): 57%
Mouse IgG
  % IgG Capture - Batch Binding, Mouse IgG: 3%
IgG4
  hIgG4 elution pH 2.5 (% of Total Load): 50%
  hIgG4 elution pH 3.5 (% of Total Load): 62%
  hIgG4 elution pH 4.5 (% of Total Load): 13%
  hIgG4 elution pH 5.5 (% of Total Load): 3%
  hIgG4 elution pH 9.0 (% of Total Load): 56%
  hIgG4 elution pH 9.5 (% of Total Load): 67%
